We go through one substance from patent US8815237.

pKd: −log10 of the molar value.

Test in all cases: SPR (Biacore T100), steady state; antibody immobilized, soluble receptor injected
A general note: Surface plasmon resonance follows binding to a sensor surface in real time, without labels.

Experiment [1] addresses soluble human FcγRIIA^131H (human) (UniProt P12318).
Experiment [2] concerns the target soluble human FcγRIIA^131R (human) (UniProt P12318).
Experiment [3] concerns the target soluble human FcγRIa (R&D Systems) (human) (UniProt P12314).
UniProt P12314, sequence (P12314 16-288 limits assumed): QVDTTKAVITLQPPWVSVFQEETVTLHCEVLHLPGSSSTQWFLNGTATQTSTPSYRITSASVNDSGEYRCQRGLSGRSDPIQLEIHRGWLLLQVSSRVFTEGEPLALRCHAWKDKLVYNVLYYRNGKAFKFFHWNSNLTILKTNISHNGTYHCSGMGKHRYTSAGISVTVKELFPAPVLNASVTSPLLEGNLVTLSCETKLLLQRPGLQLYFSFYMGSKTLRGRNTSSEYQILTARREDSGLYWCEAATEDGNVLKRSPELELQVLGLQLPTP

As a reminder, the pKd is the Kd on a negative log10 scale, so that one unit is a factor of ten. Consider 4m5.3 hIgG1 S298G/T299A (antibody), for which the negative logarithm of the Kd (pKd) is 5.15 in experiment [1] and 5.77 in experiment [2]. The substance also came in with a fold stronger binding than wild-type Fc in experiment [2] of 3 fold. In experiment [3], this substance showed a fold weakening of binding against wild type of 10 fold.
